Measurements taken from publication PMC13541077.

Molecular target: recombinant soluble PRRSV-1 Olot/91 glycoprotein 3 ectodomain (sGP3) (PRRSV-1 (Betaarterivirus europensis), strain Olot/91)
Experiment: mass photometry; Refeyn MPOne; GP3 at 20 nM in filtered PBS, triplicate; calibrated with BSA, beta-amylase and thyroglobulin

## recombinant soluble PRRSV-1 Olot/91 glycoprotein 3 ectodomain (sGP3) (domain or fragment)
  stoichiometry N: 2
